From patent publication US20260232827A1 (Zymeworks, published 2026)

Key:
cynomolgus monkey NaPi2b = molecular target: T1, cynomolgus monkey NaPi2b (cynomolgus monkey, UniProt O95436 1-690 (human entry)); experiment: flow cytometry on HEK293-6e cells transiently transfected with cynomolgus NaPi2b, antibody 18-24 h at 4 C, anti-human IgG Fc AF647
T1 construct: also called Cyno NaPi2b; Cy NaPi2b
T1 chain: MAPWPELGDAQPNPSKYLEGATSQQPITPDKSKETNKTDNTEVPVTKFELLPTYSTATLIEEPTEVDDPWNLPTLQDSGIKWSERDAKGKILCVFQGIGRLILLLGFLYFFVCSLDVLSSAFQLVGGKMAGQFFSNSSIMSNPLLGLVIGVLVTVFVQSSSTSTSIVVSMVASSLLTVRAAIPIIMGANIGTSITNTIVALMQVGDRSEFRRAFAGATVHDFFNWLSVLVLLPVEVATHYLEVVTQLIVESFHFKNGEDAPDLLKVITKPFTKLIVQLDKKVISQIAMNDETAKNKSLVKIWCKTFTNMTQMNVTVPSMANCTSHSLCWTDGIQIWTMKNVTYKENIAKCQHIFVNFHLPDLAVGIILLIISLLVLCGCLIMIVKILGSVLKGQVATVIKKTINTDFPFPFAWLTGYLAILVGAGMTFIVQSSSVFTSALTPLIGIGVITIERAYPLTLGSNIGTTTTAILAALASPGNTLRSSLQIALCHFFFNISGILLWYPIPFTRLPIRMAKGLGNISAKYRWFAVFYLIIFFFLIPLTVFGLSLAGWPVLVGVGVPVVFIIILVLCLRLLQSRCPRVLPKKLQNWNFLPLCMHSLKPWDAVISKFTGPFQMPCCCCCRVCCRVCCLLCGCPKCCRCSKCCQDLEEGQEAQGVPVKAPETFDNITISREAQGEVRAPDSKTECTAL

[1] = molecular target: T2, human sodium-dependent phosphate transporter 2B (NaPi2b) (human, UniProt O95436 1-690); experiment: cell-based or functional assay
T2 sequence: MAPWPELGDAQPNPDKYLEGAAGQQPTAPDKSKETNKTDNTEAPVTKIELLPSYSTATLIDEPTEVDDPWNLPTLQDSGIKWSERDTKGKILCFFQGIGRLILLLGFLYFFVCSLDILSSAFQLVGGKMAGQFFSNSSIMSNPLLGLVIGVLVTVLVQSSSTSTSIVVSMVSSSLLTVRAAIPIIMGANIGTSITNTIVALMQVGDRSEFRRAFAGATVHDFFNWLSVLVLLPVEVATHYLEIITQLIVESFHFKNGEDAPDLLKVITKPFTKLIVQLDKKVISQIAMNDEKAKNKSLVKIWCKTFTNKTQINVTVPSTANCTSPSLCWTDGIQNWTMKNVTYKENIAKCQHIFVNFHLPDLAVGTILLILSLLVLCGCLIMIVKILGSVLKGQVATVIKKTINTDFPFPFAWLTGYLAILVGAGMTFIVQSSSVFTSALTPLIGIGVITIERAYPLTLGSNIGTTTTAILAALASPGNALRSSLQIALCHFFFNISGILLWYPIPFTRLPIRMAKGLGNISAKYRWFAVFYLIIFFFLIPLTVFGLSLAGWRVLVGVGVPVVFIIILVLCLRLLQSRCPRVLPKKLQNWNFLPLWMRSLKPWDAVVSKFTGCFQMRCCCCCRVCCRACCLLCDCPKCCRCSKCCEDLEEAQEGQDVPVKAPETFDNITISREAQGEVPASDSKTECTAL

[2] = molecular target: T3, Construct 7 (NaPi2b del 317-326) (human, UniProt O95436 1-690); experiment: flow cytometry, HEK293-6e cells transfected with Construct 7
T3 construct: Deletion construct on HEK293-6e cells; also called CL_#29921
T3 sequence: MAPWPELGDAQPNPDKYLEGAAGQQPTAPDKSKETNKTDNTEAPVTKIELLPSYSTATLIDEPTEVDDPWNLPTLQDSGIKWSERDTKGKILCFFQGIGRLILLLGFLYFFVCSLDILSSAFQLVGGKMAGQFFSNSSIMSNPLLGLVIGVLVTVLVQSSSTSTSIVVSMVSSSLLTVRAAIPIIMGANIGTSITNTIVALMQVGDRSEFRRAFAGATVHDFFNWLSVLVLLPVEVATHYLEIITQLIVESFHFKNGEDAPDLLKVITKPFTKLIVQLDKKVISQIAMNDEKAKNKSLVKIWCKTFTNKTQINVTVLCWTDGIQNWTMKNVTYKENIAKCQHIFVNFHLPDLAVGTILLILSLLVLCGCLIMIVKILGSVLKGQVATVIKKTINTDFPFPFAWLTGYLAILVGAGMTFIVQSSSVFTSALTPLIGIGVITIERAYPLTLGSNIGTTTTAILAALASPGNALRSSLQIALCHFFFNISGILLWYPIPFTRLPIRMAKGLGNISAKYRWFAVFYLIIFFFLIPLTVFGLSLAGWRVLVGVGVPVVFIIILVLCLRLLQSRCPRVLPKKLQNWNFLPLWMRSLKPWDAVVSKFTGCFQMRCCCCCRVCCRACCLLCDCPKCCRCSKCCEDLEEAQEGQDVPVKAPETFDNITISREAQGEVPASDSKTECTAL
Protocol: Following transfection, cells were seeded at 50,000 cells/well in conical-bottom 96-well plates and treated with a serial dilution of test antibody for 24 hours at 4° C. to prevent internalization. Cells were treated with final concentrations of all humanized antibodies of 200, 20, or 2 nM. Cells were treated with final concentrations of the reference anti-NaPi2a rabbit antibody of 50, 5, or 0.5 nM. […] Following incubation and washing, fluorescence was detected by flow cytometry on a BD LSRFortessa™ Cell Analyzer (BD Biosciences, Franklin Lake, NJ) with 1,000 minimum events collected per well. […] Background-subtracted AF647 Mean Fluorescence Intensity (MFI) values were calculated by subtracting the average MFI of three technical replicates of unstained (no primary antibody) cells.

[3] = molecular target: T2, human sodium-dependent phosphate …; experiment: flow cytometry on H441 cells (endogenous NaPi2b), 24 h at 4 C, anti-human IgG Fc AF647, APC-A GeoMean
Protocol: Cells were maintained under standard culture conditions (37° C./5% CO₂) until assay set-up. […] Cells were removed from culture vessels using Cell Dissociation Buffer (Invitrogen, Waltham, MA), seeded at 50,000 cells/well in conical-bottom 96-well plates, and treated with test antibody or antibody-drug conjugate for 24 hours at 4° C. to prevent internalization. […] Following incubation and washing, fluorescence was detected by flow cytometry on a BD LSRFortessa™ Cell Analyzer (BD Biosciences, Franklin Lake, NJ) with 1,000 minimum events collected per well.

B1: v22277 (palivizumab, anti-RSV negative control, heterodimeric Fc) (antibody, human IgG1, kappa)
heavy 1: GQVTLRESGPALVKPTQTLTLTCTFSGFSLSTSGMSVGWIRQPPGKALEWLADIWWDDKKDYNPSLKSRLTISKDTSKNQVVLKVTNMDPADTATYYCARSMITNWYFDVWGAGTTVTVSSASTKGPSVFPLAPSSKSTSGGTAALGCLVKDYFPEPVTVSWNSGALTSGVHTFPAVLQSSGLYSLSSVVTVPSSSLGTQTYICNVNHKPSNTKVDKKVEPKSCDKTHTCPPCPAPELLGGPSVFLFPPKPKDTLMISRTPEVTCVVVDVSHEDPEVKFNWYVDGVEVHNAKTKPREEQYNSTYRVVSVLTVLHQDWLNGKEYKCKVSNKALPAPIEKTISKAKGQPREPQVYVYPPSRDELTKNQVSLTCLVKGFYPSDIAVEWESNGQPENNYKTTPPVLDSDGSFALVSKLTVDKSRWQQGNVFSCSVMHEALHNHYTQKSLSLSPG
heavy 2: not shown
light: GDIQMTQSPSTLSASVGDRVTITCKSQLSVGYMHWYQQKPGKAPKLLIYDTSKLASGVPSRFSGSGSGTEFTLTISSLQPDDFATYYCFQGSGYPFTFGGGTKLEIKRTVAAPSVFIFPPSDEQLKSGTASVVCLLNNFYPREAKVQWKVDNALQSGNSQESVTEQDSKDSTYSLSSTLTLSKADYEKHKVYACEVTHQGLSSPVTKSFNRGEC
notes: also called neg control
With B1 the binding result (cynomolgus monkey NaPi2b) was “no binding (tested: 200 nM)”, the “Internalized Fluorescence Fold-Over Palivizumab, HCC-78, 5 hrs, 10 nM” value [1] was 1 fold and the “Internalized Fluorescence Fold-Over Palivizumab, HCC-78, 24 hrs, 10 nM” value [1] was 1 fold. For the same binder, the “Internalized Fluorescence Fold-Over Palivizumab, NCI-H441, 5 hrs, 10 nM” value [1] was 1 fold and the “Internalized Fluorescence Fold-Over Palivizumab, NCI-H441, 24 hrs, 10 nM” value [1] was 1 fold.

B2: v18993 (lifastuzumab), reference anti-NaPi2b antibody (antibody, human IgG1, kappa)
heavy 1: GEVQLVESGGGLVQPGGSLRLSCAASGFSFSDFAMSWVRQAPGKGLEWVATIGRVAFHTYYPDSMKGRFTISRDNSKNTLYLQMNSLRAEDTAVYYCARHRGFDVGHFDFWGQGTLVTVSSASTKGPSVFPLAPSSKSTSGGTAALGCLVKDYFPEPVTVSWNSGALTSGVHTFPAVLQSSGLYSLSSVVTVPSSSLGTQTYICNVNHKPSNTKVDKKVEPKSCDKTHTCPPCPAPELLGGPSVFLFPPKPKDTLMISRTPEVTCVVVDVSHEDPEVKFNWYVDGVEVHNAKTKPREEQYNSTYRVVSVLTVLHQDWLNGKEYKCKVSNKALPAPIEKTISKAKGQPREPQVYVYPPSRDELTKNQVSLTCLVKGFYPSDIAVEWESNGQPENNYKTTPPVLDSDGSFALVSKLTVDKSRWQQGNVFSCSVMHEALHNHYTQKSLSLSPG
heavy 2: not shown
light: GDIQMTQSPSSLSASVGDRVTITCRSSETLVHSSGNTYLEWYQQKPGKAPKLLIYRVSNRFSGVPSRFSGSGSGTDFTLTISSLQPEDFATYYCFQGSFNPLTFGQGTKVEIKRTVAAPSVFIFPPSDEQLKSGTASVVCLLNNFYPREAKVQWKVDNALQSGNSQESVTEQDSKDSTYSLSSTLTLSKADYEKHKVYACEVTHQGLSSPVTKSFNRGEC
B2: no binding (tested: 200 nM) [2].

B3: v38591 (humanized anti-NaPi2b antibody, wild-type Fc) (antibody, human IgG1, kappa)
heavy: not shown
light: DVQMTQSPSSLSASVGDRVTITCRASQDVYSYLNWYQQKPGKAVKLLIYYTSRLQSGVPSRFSGSGSGTDYTLTISSLQPEDFATYYCQQYNIFPWTFGQGTKLEIKRTVAAPSVFIFPPSDEQLKSGTASVVCLLNNFYPREAKVQWKVDNALQSGNSQESVTEQDSKDSTYSLSSTLTLSKADYEKHKVYACEVTHQGLSSPVTKSFNRGEC
notes: also called v38591 Wild-type; H1L2
For B3, the “EC50 (read off the curve)” value [3] was roughly 0.6 nM.
